Experimental findings from article PMC11500106, “Characterization of Medusavirus encoded histones reveals nucleosome-like structures and a unique linker histone” are described below.

The target of this series is eH1.0 (Mus musculus, UniProt P10922 1-194). In words: fluorescence polarization; unit inferred from the titration (0-10 uM; fitted as EC50); FP: 20 mM Tris pH 7.5, 1 mM DTT, 1 mM EDTA, room temperature, 1 h, 10 nM DNA; reconstitution: salt-gradient dialysis 2 M to 50 mM NaCl. The following applies: protein: recombinant; label: 5' 6-FAM; only one strand printed (Results call it a 35-mer).
eH1.0, sequence (P10922 whole entry): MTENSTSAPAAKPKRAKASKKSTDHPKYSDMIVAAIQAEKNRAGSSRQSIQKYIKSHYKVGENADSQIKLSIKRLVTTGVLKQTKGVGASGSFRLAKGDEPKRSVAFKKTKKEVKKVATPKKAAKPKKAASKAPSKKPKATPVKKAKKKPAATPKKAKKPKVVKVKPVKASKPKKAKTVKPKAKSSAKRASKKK

B1: FP 25-mer DNA (mixed)
DNA: GCAGCTGGCACGACAGGTATGAATC
In the case of B1, the Kd (commonly a measure of binding affinity in units of concentration) worked out at 18.1 nM.
